Test results from US8975044B2, “Polynucleotides encoding for frizzled-binding agents and uses thereof” (OncoMed Pharmaceuticals, Inc., priority 2008, dated 2015).

Target: T1, FZD8 binding to Wnt3A (Homo sapiens, UniProt Q9H461)
T1 construct: amino acids 1-157 of FZD8 linked in-frame to human IgG1 Fc
T1 sequence (Q9H461 28-157): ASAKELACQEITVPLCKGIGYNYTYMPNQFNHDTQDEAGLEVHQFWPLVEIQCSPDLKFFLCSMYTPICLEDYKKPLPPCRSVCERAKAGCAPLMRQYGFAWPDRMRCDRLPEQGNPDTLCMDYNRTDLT
Experiment: Blocking of FZD8-Fc binding to Wnt3A (protein A depletion, STF293 reporter readout)
Format: biochemical
Details: in the absence of 18R8
Method: To assess the ability of 18R8 to block the binding of FZD to Wnt, 2 μl of 1.32 μg/μl soluble FZD8-Fc containing the Fri domain (amino acids 1-157 of FZD8 linked in-frame to human IgG1 Fc) was added to culture medium to bind Wnt3A (added as 20 μl of Wnt3A conditioned medium) either alone or in the presence of the 18R8 IgG antibody (added as 4 μl of 3.71 μg/μl). The mixtures were incubated either alone or in the presence of Protein A sepharose beads (GE Healthcare products; 20 μl of 50% solution in PBS) for two hrs at 4° C. After the incubation, the protein A beads (and any proteins complexed to the protein A beads) in each sample were removed by spinning and the supernatant was assayed for ability to induce 8×TCF luciferase activity. The supernatant was added to STF293 cells, which stably express 8×TCF (eight copies of the TCF-binding domain upstream of a firefly luciferase reporter gene) to measure canonical Wnt signaling levels and which were cultured in DMEM supplemented with antibiotics and 10% FCS. Eighteen hours following treatment of the STF293 cells, luciferase levels were measured using a dual luciferase assay kit (Promega; Madison, Wis.).

B1: Fzd8-Fc: soluble FZD8-Fc containing the Fri domain (amino acids 1-157 of FZD8 linked in-frame to human IgG1 Fc) (protein)
chain: ASAKELACQEITVPLCKGIGYNYTYMPNQFNHDTQDEAGLEVHQFWPLVEIQCSPDLKFFLCSMYTPICLEDYKKPLPPCRSVCERAKAGCAPLMRQYGFAWPDRMRCDRLPEQGNPDTLCMDYNRTDLT
modifications: left off: a dimerising Fc or GST
B1 was tested, and the “effect on Wnt3A-stimulated signaling” value was “inhibit the ability of Wnt3A to stimulate signaling”.
